Assay results reported in article PMC7308368, “Structure of the polymerase ε holoenzyme and atomic model of the leading strand replisome” (Nature Communications, 2020).

B1: Dpb4 subunit of S. cerevisiae DNA polymerase ε holoenzyme (natural protein)
chain: MPPKGWRKDAQGNYPTTSYIKEQENITIQDLLFPKSTIVNLAREVPQQSGKKLLINKDASLALQRGATVFVNHLLLFAREIAKSQDKKSCSVDDVLSALDHIGHSALKGPVRDKLDEYQAAVEQRKKEKLDSGEVDADGDIDMGEDKENVPVEKVKEHDEIEEQGDALQDVEESSEKKQKTESQDVETRVQNLEQT
notes: DNA polymerase epsilon subunit D Dpb4, S. cerevisiae; histone fold domain and C-terminal region; The holoenzyme was purified on anti-Flag resin; also called Dbp4; source: yeast, subunit genes integrated under the Gal1/10 promotor, galactose-induced; purified as holoenzyme (anti-Flag resin, MonoS)
B2: Dpb3 subunit of S. cerevisiae DNA polymerase ε holoenzyme (natural protein)
chain: MSNLVKEKAPVFPISKVKKIAKCDPEYVITSNVAISATAFAAELFVQNLVEESLVLAQLNSKGKTSLRLSLNSIEECVEKRDNFRFLEDAIKQLKKNSALDKKRELNMQPGRSDQEVVIEEPELHEDDGVEEEEEEDEVSEEEEPVHNEELLDDSKDQQNDKSTRSVASLLSRFQYKSALDVGEHSDSSDIEVDHTKSTDP
notes: DNA polymerase epsilon subunit C Dpb3, S. cerevisiae; histone fold domain and C-terminal region; The holoenzyme was purified on anti-Flag resin; source: yeast, subunit genes integrated under the Gal1/10 promotor, galactose-induced; purified as holoenzyme (anti-Flag resin, MonoS)
B3: Dpb2 subunit of S. cerevisiae DNA polymerase ε holoenzyme (natural protein)
chain: MFGSGNVLPVKIQPPLLRPLAYRVLSRKYGLSIKSDGLSALAEFVGTNIGANWRQGPATIKFLEQFAAVWKQQERGLFIDQSGVKEVIQEMKEREKVEWSHEHPIQHEENILGRTDDDENNSDDEMPIAADSSLQNVSLSSPMRQPTERDEYKQPFKPESSKALDWRDYFKVINASQQQRFSYNPHKMQFIFVPNKKQNGLGGIAGFLPDIEDKVQMFLTRYYLTNDRVMRNENFQNSDMFNPLSSMVSLQNELSNTNRQQQSSSMSITPIKNLLGRDAQNFLLLGLLNKNFKGNWSLEDPSGSVEIDISQTIPTQGHYYVPGCMVLVEGIYYSVGNKFHVTSMTLPPGERREITLETIGNLDLLGIHGISNNNFIARLDKDLKIRLHLLEKELTDHKFVILGANLFLDDLKIMTALSKILQKLNDDPPTLLIWQGSFTSVPVFASMSSRNISSSTQFKNNFDALATLLSRFDNLTENTTMIFIPGPNDLWGSMVSLGASGTLPQDPIPSAFTKKINKVCKNVVWSSNPTRIAYLSQEIVIFRDDLSGRFKRHRLEFPFNESEDVYTENDNMMSKDTDIVPIDELVKEPDQLPQKVQETRKLVKTILDQGHLSPFLDSLRPISWDLDHTLTLCPIPSTMVLCDTTSAQFDLTYNGCKVINPGSFIHNRRARYMEYVPSSKKTIQEEIYI
notes: DNA polymerase epsilon subunit B Dpb2, S. cerevisiae; N-terminal helical domain (8-94, disordered), PDE domain (168-209 and 349-689), OB domain (210-348); The holoenzyme was purified on anti-Flag resin; also called Dbp2; B subunit; source: yeast, subunit genes integrated under the Gal1/10 promotor, galactose-induced; purified as holoenzyme (anti-Flag resin, MonoS)

How the values were obtained:
[1] = biological target: T1, Pol2 subunit of S. cerevisiae DNA polymerase ε holoenzyme (S. cerevisiae, UniProt P21951 1-2222); test: cryo-EM structure; recombinant Pol ε holoenzyme at ~1.6 mg/ml on C-flat holey carbon grids; rigid-state particles selected; 3.5 Å map; sample buffer 50 mM Hepes pH 7.5, 50 mM KGlu, 200 mM KAcetate, 1 mM DTT, 4 mM MgCl2; conditions: both partners purified
T1 construct: DNA polymerase epsilon catalytic subunit Pol2, S. cerevisiae; 2222-residue polypeptide with catalytic NTD, NTD-CTD linker (Thr-1186 to Ser-1308) and non-catalytic CTD; The holoenzyme was purified on anti-Flag resin; source: yeast, subunit genes integrated under the Gal1/10 promotor, galactose-induced; purified as holoenzyme (anti-Flag resin, MonoS)

[2] = biological target: B2; test: as above; conditions: both partners purified

T1 sequence (P21951 whole entry): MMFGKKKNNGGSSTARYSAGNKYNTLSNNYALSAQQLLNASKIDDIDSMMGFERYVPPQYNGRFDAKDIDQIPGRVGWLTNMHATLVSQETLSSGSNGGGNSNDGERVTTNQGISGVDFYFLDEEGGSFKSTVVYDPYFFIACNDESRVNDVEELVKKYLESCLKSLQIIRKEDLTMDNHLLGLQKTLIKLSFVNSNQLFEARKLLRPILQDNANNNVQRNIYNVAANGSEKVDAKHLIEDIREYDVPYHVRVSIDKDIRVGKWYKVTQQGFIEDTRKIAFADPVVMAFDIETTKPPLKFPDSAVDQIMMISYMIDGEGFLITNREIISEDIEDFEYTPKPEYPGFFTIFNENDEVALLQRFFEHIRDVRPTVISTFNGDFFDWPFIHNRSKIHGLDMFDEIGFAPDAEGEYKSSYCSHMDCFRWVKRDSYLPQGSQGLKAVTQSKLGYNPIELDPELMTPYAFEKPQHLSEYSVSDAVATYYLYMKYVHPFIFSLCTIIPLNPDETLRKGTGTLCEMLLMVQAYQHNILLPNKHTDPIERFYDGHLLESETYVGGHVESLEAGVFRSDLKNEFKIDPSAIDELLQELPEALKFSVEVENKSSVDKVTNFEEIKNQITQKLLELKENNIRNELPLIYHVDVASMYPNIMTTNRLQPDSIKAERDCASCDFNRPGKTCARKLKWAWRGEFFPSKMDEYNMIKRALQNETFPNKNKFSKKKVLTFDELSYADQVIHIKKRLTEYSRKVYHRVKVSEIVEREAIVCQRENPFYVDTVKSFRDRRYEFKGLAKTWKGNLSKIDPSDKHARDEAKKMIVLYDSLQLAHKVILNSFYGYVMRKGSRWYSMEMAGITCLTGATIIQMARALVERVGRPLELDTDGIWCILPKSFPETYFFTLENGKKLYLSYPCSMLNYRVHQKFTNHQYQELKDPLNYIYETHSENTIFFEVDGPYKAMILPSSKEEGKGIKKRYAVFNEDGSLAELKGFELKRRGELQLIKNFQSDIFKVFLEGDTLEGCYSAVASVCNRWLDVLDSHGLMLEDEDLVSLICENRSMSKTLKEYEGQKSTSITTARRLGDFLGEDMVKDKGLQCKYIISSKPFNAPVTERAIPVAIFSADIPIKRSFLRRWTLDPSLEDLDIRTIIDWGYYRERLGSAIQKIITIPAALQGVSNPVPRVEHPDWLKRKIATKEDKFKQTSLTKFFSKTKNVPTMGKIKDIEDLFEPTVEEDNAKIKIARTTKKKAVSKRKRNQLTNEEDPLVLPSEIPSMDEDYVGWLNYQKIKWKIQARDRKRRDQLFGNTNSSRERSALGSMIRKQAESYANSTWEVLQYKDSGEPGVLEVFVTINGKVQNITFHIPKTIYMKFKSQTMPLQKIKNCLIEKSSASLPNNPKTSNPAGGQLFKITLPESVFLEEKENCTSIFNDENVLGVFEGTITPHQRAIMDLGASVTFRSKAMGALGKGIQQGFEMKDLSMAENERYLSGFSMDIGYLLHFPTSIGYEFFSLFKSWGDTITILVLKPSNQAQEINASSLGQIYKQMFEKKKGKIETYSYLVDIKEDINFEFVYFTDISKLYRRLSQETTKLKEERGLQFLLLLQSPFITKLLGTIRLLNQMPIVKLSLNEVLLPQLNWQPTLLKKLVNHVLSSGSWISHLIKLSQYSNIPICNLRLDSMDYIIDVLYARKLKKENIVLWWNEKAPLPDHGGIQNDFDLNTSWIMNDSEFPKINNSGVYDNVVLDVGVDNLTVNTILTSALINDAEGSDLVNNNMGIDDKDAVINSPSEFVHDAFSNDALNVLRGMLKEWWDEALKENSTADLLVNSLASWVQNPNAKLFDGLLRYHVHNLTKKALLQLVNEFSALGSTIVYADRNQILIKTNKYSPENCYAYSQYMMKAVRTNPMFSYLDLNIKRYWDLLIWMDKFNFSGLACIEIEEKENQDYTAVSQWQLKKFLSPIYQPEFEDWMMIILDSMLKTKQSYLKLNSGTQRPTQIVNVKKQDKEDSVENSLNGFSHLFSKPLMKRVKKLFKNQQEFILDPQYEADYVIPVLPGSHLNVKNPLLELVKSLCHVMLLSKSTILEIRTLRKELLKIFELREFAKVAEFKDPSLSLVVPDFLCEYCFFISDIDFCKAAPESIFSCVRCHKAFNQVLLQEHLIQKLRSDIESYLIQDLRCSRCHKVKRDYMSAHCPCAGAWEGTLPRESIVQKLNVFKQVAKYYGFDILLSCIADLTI

binding result [1] | binding result [2] | Binder
binds | binds | B1
binds | – | B2
binds | – | B3
